Reference: the supplement of paper PMC12764529
± gives the half width of the 95% confidence interval.

Assays:
[1] = folding stability dG unfold from chymotrypsin proteolysis; higher = more stable
How it was run: (§1)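 Unfolding free energy was derived, per protease or combined, against a sequence-predicted unfolded-state K50 and a shared folded-state K50, starting from K50 inferred by Bayesian fitting of sequencing counts. Digestion with trypsin and chymotrypsin was carried out on designed mini-proteins under 80 residues without cysteine in a PA-tagged cDNA display construct. Only designs with AlphaFold2 dimer inter-PAE above 15 were kept.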

[2] = folding stability dG unfold from trypsin proteolysis; higher = more stable
How it was run: as §1

[3] = folding stability dG unfold (combined trypsin and chymotrypsin); higher = more stable
How it was run: as §1

| Sequence | folding stability dG unfold [1] [kcal/mol] | folding stability dG unfold [2] [kcal/mol] | folding stability dG unfold [3] [kcal/mol] |
| --- | --- | --- | --- |
| SAGGSAGGSAGMVLLKSEEEAEELRKPNVSLSVTPVPPVEVSEGDPNALAYEVELKPPLESAGGSAGGSAGG [r11_168_JUSTAS] | 0.0585 ± 0.17 | 1.49 ± 0.053 | 0.86 ± 0.11 |
| SAGGSAGGSAGMVTIYADPDGSYTAHFPDGSSASYSSLEEVKANLKAKYPDVKDVVIEKTSAGGSAGGSAGG [r11_806_JUSTAS] | 3.449 ± 0.034 | 2.17 ± 0.088 | 3.11 ± 0.084 |
| SAGGSAGGSAGMVTVGDTEVVIEKDPNSDKYTVTVTPADGTTETLTFDSEEEVERYIEAKSAGGSAGGSAGG [r11_238_JUSTAS] | 1.7 ± 0.035 | 1.49 ± 0.051 | 1.61 ± 0.052 |
| SAGGSAGGSAGMVVVERTSAPDPDKPTSYWFYTKTTFFPDGSVLSETKKFPSPAELEKATSAGGSAGGSAGG [r11_792_JUSTAS] | 1.07 ± 0.12 | 0.793 ± 0.023 | 0.992 ± 0.07 |
| SAGGSAGGSAGMVYITKGKDGIWYEAEVDPTKPGAKVKVRHPLTGKEEEITPAEVVAVPPSAGGSAGGSAGG [r11_822_TrMRF] | -0.546 ± 0.6 | 0.141 ± 0.15 | 0.155 ± 0.42 |
| SAGGSAGGSAGMWIDEDTIRRLAALLGYPGKVEVVRLEDGSLLVVVYGDTEPGVLLFPLDSAGGSAGGSAGG [r11_410_TrMRF] | 2.255 ± 0.017 | 3.02 ± 0.079 | 2.59 ± 0.048 |
| SAGGSAGGSAGMYVITIKLPSGEVIKIKTDPKNPEEAIKKLEPQYPPAEFEVKEVPENEISAGGSAGGSAGG [r11_103_JUSTAS] | -0.198 ± 0.26 | 0.633 ± 0.041 | 0.254 ± 0.18 |
| SAGGSAGGSAGMYYVIKRPGKVEILPEEEVPKVIEEDPNVEVKKFDSEEEAKKALEELLKSAGGSAGGSAGG [r11_60_JUSTAS] | 0.793 ± 0.073 | 0.539 ± 0.039 | 0.704 ± 0.058 |
| SAGGSAGGSAGNIILPFEIESIDIEEETAIDPETGEPVKVKKILIRLKGTGKIIEISFTEKSAGGSAGGSAG [r3_424_TrMRF] | 3.01 ± 0.11 | 2.76 ± 0.23 | 2.88 ± 0.26 |
| SAGGSAGGSAGNLKPVSGGGVLKVEVKDPNTDKKETYLVPPNKPDVVLELAKDGYEVEVSSAGGSAGGSAGG [r11_1006_TrMRF] | 0.227 ± 0.14 | 0.938 ± 0.11 | 0.639 ± 0.14 |
| SAGGSAGGSAGNLKVVDISIWRTDDMRYIMFKLEGDGLTIMIWVPPKEPGKIQIMIFPLDSAGGSAGGSAGG [r11_1046_TrROS] | 4.51 ± 0.1 | 3.49 ± 0.23 | 4.34 ± 0.16 |
| SAGGSAGGSAGNMWDQALRAAREAKDQGDEEVVIHFPPNMKNWVKEWAEDLGWPIKIQPTSAGGSAGGSAGG [r11_371_TrROS] | 0.027 ± 0.25 | 0.128 ± 0.17 | -0.0966 ± 0.19 |
| SAGGSAGGSAGNPNTPVIVKITLPGGKEITLEGTVSEAEEIVKKLEEEGHPFVEVEVYNRSAGGSAGGSAGG [r11_946_JUSTAS] | -0.849 ± 0.3 | 0.422 ± 0.041 | 0.0762 ± 0.14 |
| SAGGSAGGSAGNWKIKNIEPVRLPNNVHIMKFQIPGRSLIFVFDPKNGQKRWIPLKDIKPSAGGSAGGSAGG [r17_286_TrROS] | -0.0752 ± 0.14 | -0.301 ± 0.25 | -0.0705 ± 0.09 |
| SAGGSAGGSAGPEITVVKAPDEGYYYLIKLKVTYTLRDPETTAPLAEFEVEYYFLDRGSASAGGSAGGSAGG [r17_124_TrMRF] | 4.91 ± 0.12 | 3.3 ± 0.28 | 4.58 ± 0.47 |
| SAGGSAGGSAGPENKNYMVMEMTIDIWIPLPPNAKVVFDPDEGKWKYVPIKIPIRIVMPWSAGGSAGGSAGG [r11_257_TrROS] | 3.43 ± 0.12 | 2.91 ± 0.14 | 3.2 ± 0.15 |

| Sequence | folding stability dG unfold [1] [kcal/mol] | folding stability dG unfold [2] [kcal/mol] | folding stability dG unfold [3] [kcal/mol] |
| --- | --- | --- | --- |
| SAGGSAGGSAGPEVIEIKNPKTGKTYRIVRNKDGKLLIYNEATGKVAVFKDGKIELVPAPSAGGSAGGSAGG [r17_476_TrROS_Hall] | 0.825 ± 0.21 | 1.14 ± 0.07 | 1.05 ± 0.16 |
| SAGGSAGGSAGPEVRIELERDEDGRLRLRATFKLEDGKEVRVEVEFDLKTKKLTVKIEPVSAGGSAGGSAGG [r11_107_TrROS_Hall] | 4.8 ± 0.41 | 3.83 ± 0.19 | 4.63 ± 0.39 |
| SAGGSAGGSAGPEWYVVMRVENPGTGKEVHFIGPWDDFKEKLPPSNVKMEWHLIPADALKSAGGSAGGSAGG [r11_334_TrROS] | 0.666 ± 0.06 | 0.0887 ± 0.066 | 0.494 ± 0.061 |
| SAGGSAGGSAGPFKIEMTFIFKKDNEYYIAKIEIEISPDGYPKMKIEIKKVDINELENYFSAGGSAGGSAGG [r11_690_TrMRF] | 4.39 ± 0.14 | 2.52 ± 0.15 | 4.04 ± 0.4 |
| SAGGSAGGSAGPFTIMVIERVPPDDPEYDKLHKDNGMPPENMIRIKIFRFKSPEQLKELFSAGGSAGGSAGG [r11_83_TrROS] | 2.12 ± 0.06 | 1.82 ± 0.038 | 2.08 ± 0.086 |
| SAGGSAGGSAGPGLSITTTITTTTPAKLPNGTAPLRTTTTTIITELKPADPNNPVILANTSAGGSAGGSAGG [r11_236_JUSTAS] | 0.278 ± 0.069 | 1.05 ± 0.053 | 0.746 ± 0.048 |
| SAGGSAGGSAGPKIKIKKFPDFLIAEIEFPDGKKATAIFDPKTGKIIVFVGDKPIEIDIGSAGGSAGGSAGG [r11_846_TrMRF] | 3.49 ± 0.09 | 2.16 ± 0.059 | 3.1 ± 0.07 |
| SAGGSAGGSAGPKPLATITLPYPDNASVTITVTPNGVLIDPDPNITNPEVEKAVADALTDSAGGSAGGSAGG [r11_372_TrMRF] | 1.07 ± 0.12 | 1.55 ± 0.11 | 1.41 ± 0.099 |
| SAGGSAGGSAGPLKIKKLELRKLPDGFVEMTAEFEGPENYTVRLIVRKDDPNKLVLEVFPSAGGSAGGSAGG [r11_618_TrROS_Hall] | 2.98 ± 0.057 | 2.07 ± 0.095 | 2.69 ± 0.16 |
| SAGGSAGGSAGPLTLTATFLSDYNYAVTVTLTFEVDENGNLSVSGEVEIRPVPPLGPGNASAGGSAGGSAGG [r11_728_TrMRF] | 4.05 ± 0.11 | 2.42 ± 0.1 | 3.72 ± 0.15 |
| SAGGSAGGSAGPMEVERETIMIPIDPDKGYYIMIDVWRYKNPGGPPFPAPSISIMDLDDLSAGGSAGGSAGG [r11_51_TrROS] | 3.11 ± 0.045 | 1.78 ± 0.072 | 2.68 ± 0.11 |
| SAGGSAGGSAGPNIYVSIKWKHNNGPVTHQIPIPPNDPPEILDEMSKQPGFKVTDIEVMPSAGGSAGGSAGG [r11_692_TrROS] | -0.0146 ± 0.3 | -0.836 ± 0.35 | -0.213 ± 0.25 |
| SAGGSAGGSAGPNNMYPYEITIEVRDDGKPVKIKIEMYMSPNGEPMPPEQIKNFAKELAKSAGGSAGGSAGG [r17_373_TrROS] | 0.444 ± 0.17 | 0.382 ± 0.24 | 0.398 ± 0.23 |
| SAGGSAGGSAGPNWKKYTFTIFFPGYPFRVEIERPKDGPNAPLAIKIEDPNGKPMETFPISAGGSAGGSAGG [r11_223_TrROS] | 2.61 ± 0.082 | 2.71 ± 0.11 | 2.67 ± 0.12 |
| SAGGSAGGSAGPPDQNFLIKIKWQENGKKREHTIPIPAENLDEVLDELSPWPGLEVEIIPSAGGSAGGSAGG [r17_50_TrROS] | -0.295 ± 0.11 | -0.408 ± 0.085 | -0.376 ± 0.19 |
